Each block holds one binder with its values, some of them ahead of it.
Experiments:
O15 = target: T1, O15; assay: two-hybrid library CC0; details: mean of both orientations;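 note: natural log of median RNA to DNA barcode read ratio; higher means stronger binding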
T1 chain: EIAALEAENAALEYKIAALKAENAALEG

O16 = target: T2, O16; assay: two-hybrid library CC0; details: mean of both orientations;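 note: natural log of median RNA to DNA barcode read ratio; higher means stronger binding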
T2 chain: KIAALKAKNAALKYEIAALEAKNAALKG

O2 = target: T3, O2; assay: two-hybrid library CC0; details: mean of both orientations;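 note: natural log of median RNA to DNA barcode read ratio; higher means stronger binding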
T3 chain: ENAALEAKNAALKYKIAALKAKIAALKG

O3 = target: T4, O3; assay: two-hybrid library CC0; details: mean of both orientations;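 note: natural log of median RNA to DNA barcode read ratio; higher means stronger binding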
T4 chain: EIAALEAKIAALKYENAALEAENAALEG

O4 = target: T5, O4; assay: two-hybrid library CC0; details: mean of both orientations;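 note: natural log of median RNA to DNA barcode read ratio; higher means stronger binding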
T5 chain: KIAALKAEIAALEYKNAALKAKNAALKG

O5 = target: T6, O5; assay: two-hybrid library CC0; details: mean of both orientations;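 note: natural log of median RNA to DNA barcode read ratio; higher means stronger binding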
T6 chain: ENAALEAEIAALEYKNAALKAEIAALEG

O6 = target: T7, O6; assay: two-hybrid library CC0; details: mean of both orientations
T7 chain: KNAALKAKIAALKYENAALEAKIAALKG

O7 = target: T8, O7; assay: two-hybrid library CC0; details: mean of both orientations
T8 chain: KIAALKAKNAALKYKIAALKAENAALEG

O8 = target: T9, O8; assay: two-hybrid library CC0; details: mean of both orientations
T9 chain: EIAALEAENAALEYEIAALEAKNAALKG

O9 = target: T10, O9; assay: two-hybrid library CC0; details: mean of both orientations
T10 chain: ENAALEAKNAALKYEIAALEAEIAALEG

4H3427-bN = target: T11, 4H3427-bN; assay: two-hybrid library CCNG1
T11 chain: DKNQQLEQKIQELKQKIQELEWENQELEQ

4H346-bN = target: T12, 4H346-bN; assay: two-hybrid library CCNG1
T12 chain: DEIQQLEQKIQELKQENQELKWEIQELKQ

4H3782-bN = target: T13, 4H3782-bN; assay: two-hybrid library CCNG1
T13 chain: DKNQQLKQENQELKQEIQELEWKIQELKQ

4H3855-bN = target: T14, 4H3855-bN; assay: two-hybrid library CCNG1
T14 chain: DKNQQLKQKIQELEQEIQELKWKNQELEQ

4H3926-bN = target: T15, 4H3926-bN; assay: two-hybrid library CCNG1
T15 chain: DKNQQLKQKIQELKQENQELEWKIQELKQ

4H4001-bN = target: T16, 4H4001-bN; assay: two-hybrid library CCNG1
T16 chain: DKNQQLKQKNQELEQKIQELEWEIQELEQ

4H4073-bN = target: T17, 4H4073-bN; assay: two-hybrid library CCNG1
T17 chain: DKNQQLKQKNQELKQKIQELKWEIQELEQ

4H454-bN = target: T18, 4H454-bN; assay: two-hybrid library CCNG1
T18 chain: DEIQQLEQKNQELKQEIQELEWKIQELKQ

4H457-bN = target: T19, 4H457-bN; assay: two-hybrid library CCNG1
T19 chain: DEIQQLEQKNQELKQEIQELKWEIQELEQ

4H568-bN = target: T20, 4H568-bN; assay: two-hybrid library CCNG1
T20 chain: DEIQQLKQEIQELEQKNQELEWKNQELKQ

4H575-bN = target: T21, 4H575-bN; assay: two-hybrid library CCNG1
T21 chain: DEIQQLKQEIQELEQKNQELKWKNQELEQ

4H607-bN = target: T22, 4H607-bN; assay: two-hybrid library CCNG1
T22 chain: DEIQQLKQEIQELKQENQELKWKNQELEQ

4H683-bN = target: T23, 4H683-bN; assay: two-hybrid library CCNG1
T23 chain: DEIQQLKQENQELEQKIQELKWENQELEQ

4H687-bN = target: T24, 4H687-bN; assay: two-hybrid library CCNG1
T24 chain: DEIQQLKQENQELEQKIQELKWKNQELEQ

4H717-bA = target: T25, 4H717-bA; assay: two-hybrid library CCNG1
T25 chain: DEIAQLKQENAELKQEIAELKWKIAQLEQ

4H717-bN = target: T26, 4H717-bN; assay: two-hybrid library CCNG1
T26 chain: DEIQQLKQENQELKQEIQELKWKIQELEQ

4H72-bN = target: T27, 4H72-bN; assay: two-hybrid library CCNG1
T27 chain: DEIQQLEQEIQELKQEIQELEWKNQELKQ

4H754-bN = target: T28, 4H754-bN; assay: two-hybrid library CCNG1
T28 chain: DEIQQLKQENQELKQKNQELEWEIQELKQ

4H780-bN = target: T29, 4H780-bN; assay: two-hybrid library CCNG1
T29 chain: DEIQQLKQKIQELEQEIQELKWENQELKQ

4H797-bN = target: T30, 4H797-bN; assay: two-hybrid library CCNG1
T30 chain: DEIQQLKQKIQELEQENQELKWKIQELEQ

4H855-bN = target: T31, 4H855-bN; assay: two-hybrid library CCNG1
T31 chain: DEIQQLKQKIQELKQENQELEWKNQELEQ

4H883-bN = target: T32, 4H883-bN; assay: two-hybrid library CCNG1
T32 chain: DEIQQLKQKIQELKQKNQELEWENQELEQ

4H908-bN = target: T33, 4H908-bN; assay: two-hybrid library CCNG1
T33 chain: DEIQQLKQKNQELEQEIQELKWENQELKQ

4H918-bN = target: T34, 4H918-bN; assay: two-hybrid library CCNG1
T34 chain: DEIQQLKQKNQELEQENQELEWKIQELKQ

4H953-bN = target: T35, 4H953-bN; assay: two-hybrid library CCNG1
T35 chain: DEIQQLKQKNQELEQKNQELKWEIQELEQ

4H967-bN = target: T36, 4H967-bN; assay: two-hybrid library CCNG1
T36 chain: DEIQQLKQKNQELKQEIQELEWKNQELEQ

4H968-bN = target: T37, 4H968-bN; assay: two-hybrid library CCNG1
T37 chain: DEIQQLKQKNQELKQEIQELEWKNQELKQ

O13 = target: T38, O13; assay: two-hybrid library CCNG1
T38 chain: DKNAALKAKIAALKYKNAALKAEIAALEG

4H56-bN = target: T39, 4H56-bN; assay: two-hybrid library CCNG1
T39 chain: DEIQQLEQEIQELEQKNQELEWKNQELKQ

4H730-bN = target: T40, 4H730-bN; assay: two-hybrid library CCNG1
T40 chain: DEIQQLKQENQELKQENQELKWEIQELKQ

4H796-bN = target: T41, 4H796-bN; assay: two-hybrid library CCNG1
T41 chain: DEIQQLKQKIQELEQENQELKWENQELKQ

4H932-bN = target: T42, 4H932-bN; assay: two-hybrid library CCNG1
T42 chain: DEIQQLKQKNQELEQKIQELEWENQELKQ

4H949-bN = target: T43, 4H949-bN; assay: two-hybrid library CCNG1
T43 chain: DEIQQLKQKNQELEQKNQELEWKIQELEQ

P8A-bN = target: T44, P8A-bN; assay: two-hybrid library CCNG1
T44 chain: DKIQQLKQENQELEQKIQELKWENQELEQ

4H2610-bH = target: T45, 4H2610-bH; assay: two-hybrid library CCNG1
T45 chain: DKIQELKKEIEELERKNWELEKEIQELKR

4H2618-bH = target: T46, 4H2618-bH; assay: two-hybrid library CCNG1
T46 chain: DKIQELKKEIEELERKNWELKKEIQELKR

4H2667-bH = target: T47, 4H2667-bH; assay: two-hybrid library CCNG1
T47 chain: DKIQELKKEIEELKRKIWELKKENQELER

4H2697-bH = target: T48, 4H2697-bH; assay: two-hybrid library CCNG1
T48 chain: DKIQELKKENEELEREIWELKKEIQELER

4H3189-bH = target: T49, 4H3189-bH; assay: two-hybrid library CCNG1
T49 chain: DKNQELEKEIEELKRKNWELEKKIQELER

4H331-bH = target: T50, 4H331-bH; assay: two-hybrid library CCNG1
T50 chain: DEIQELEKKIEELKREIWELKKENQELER

4H3606-bH = target: T51, 4H3606-bH; assay: two-hybrid library CCNG1
T51 chain: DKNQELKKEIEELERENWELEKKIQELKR

4H370-bH = target: T52, 4H370-bH; assay: two-hybrid library CCNG1
T52 chain: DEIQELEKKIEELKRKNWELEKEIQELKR

4H3782-bH = target: T53, 4H3782-bH; assay: two-hybrid library CCNG1
T53 chain: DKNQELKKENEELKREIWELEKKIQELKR

4H3843-bH = target: T54, 4H3843-bH; assay: two-hybrid library CCNG1
T54 chain: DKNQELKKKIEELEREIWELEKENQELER

4H4001-bH = target: T55, 4H4001-bH; assay: two-hybrid library CCNG1
T55 chain: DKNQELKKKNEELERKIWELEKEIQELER

4H462-bH = target: T56, 4H462-bH; assay: two-hybrid library CCNG1
T56 chain: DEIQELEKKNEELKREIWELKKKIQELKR

4H568-bH = target: T57, 4H568-bH; assay: two-hybrid library CCNG1
T57 chain: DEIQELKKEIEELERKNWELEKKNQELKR

4H607-bH = target: T58, 4H607-bH; assay: two-hybrid library CCNG1
T58 chain: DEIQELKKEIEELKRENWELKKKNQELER

4H687-bH = target: T59, 4H687-bH; assay: two-hybrid library CCNG1
T59 chain: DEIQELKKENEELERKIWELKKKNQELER

4H72-bH = target: T60, 4H72-bH; assay: two-hybrid library CCNG1
T60 chain: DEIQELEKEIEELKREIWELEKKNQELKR

4H797-bH = target: T61, 4H797-bH; assay: two-hybrid library CCNG1
T61 chain: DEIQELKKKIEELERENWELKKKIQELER

4H883-bH = target: T62, 4H883-bH; assay: two-hybrid library CCNG1
T62 chain: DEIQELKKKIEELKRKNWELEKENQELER

4H918-bH = target: T63, 4H918-bH; assay: two-hybrid library CCNG1
T63 chain: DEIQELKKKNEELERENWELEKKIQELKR

4H953-bH = target: T64, 4H953-bH; assay: two-hybrid library CCNG1
T64 chain: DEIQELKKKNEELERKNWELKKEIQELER

B1: O15 (peptide)
chain: EIAALEAENAALEYKIAALKAENAALEG
interaction score (O15): -2.64
interaction score (O16): 1.2
interaction score (O2): -2.7
interaction score (O3): -2.8
interaction score (O4): -2.54
interaction score (O5): -2.15
interaction score (O6): -2.79
interaction score (O7): -1.87
interaction score (O8): -2.41
interaction score (O9): -2.72

B3: 4H56-bN (peptide)
chain: DEIQQLEQEIQELEQKNQELEWKNQELKQ
interaction score (4H56-bN): 0.863
interaction score (4H730-bN): 0.387
interaction score (4H796-bN): 0.00289
interaction score (4H932-bN): -0.791
interaction score (4H949-bN): -1.76
interaction score (O13): -0.5
interaction score (P8A-bN): -1.19

Continued, values first:

interaction score (4H3427-bN): -0.0454
interaction score (4H346-bN): -2.04
interaction score (4H3782-bN): -0.306
interaction score (4H3855-bN): -0.838
interaction score (4H3926-bN): -1.1
interaction score (4H4001-bN): -1
interaction score (4H4073-bN): -1.1
interaction score (4H454-bN): -0.734
interaction score (4H457-bN): -0.939
interaction score (4H568-bN): -0.0377
interaction score (4H575-bN): -1.57
interaction score (4H607-bN): -0.874
interaction score (4H683-bN): -2.33
interaction score (4H687-bN): -0.849
interaction score (4H717-bA): -0.117
interaction score (4H717-bN): -0.704
interaction score (4H72-bN): -1.54
interaction score (4H754-bN): -1.39
interaction score (4H780-bN): -1.3
interaction score (4H797-bN): -0.295
interaction score (4H855-bN): -0.804
interaction score (4H883-bN): -1.75
interaction score (4H908-bN): -0.725
interaction score (4H918-bN): -1.53
interaction score (4H953-bN): -0.667
interaction score (4H967-bN): -1.07
interaction score (4H968-bN): -1.97
interaction score (O13): -2.44
B2: 4H3427-bN (peptide)
chain: DKNQQLEQKIQELKQKIQELEWENQELEQ

interaction score (4H2610-bH): 1.39
interaction score (4H2618-bH): -2.22
interaction score (4H2667-bH): -0.792
interaction score (4H2697-bH): -0.13
interaction score (4H3189-bH): 0.354
interaction score (4H331-bH): -0.139
interaction score (4H3606-bH): 0.997
interaction score (4H370-bH): 1.24
interaction score (4H3782-bH): -0.423
interaction score (4H3843-bH): 0.428
interaction score (4H4001-bH): 0.47
interaction score (4H462-bH): 1.13
interaction score (4H568-bH): 1.22
interaction score (4H607-bH): -0.288
interaction score (4H687-bH): 0.522
interaction score (4H72-bH): 0.879
interaction score (4H797-bH): -0.388
interaction score (4H883-bH): 1.68
interaction score (4H918-bH): -0.153
interaction score (4H953-bH): -1.02
B4: 4H2610-bH (peptide)
chain: DKIQELKKEIEELERKNWELEKEIQELKR

From paper PMC10397247
